The DeepSol protein solubility set

Assay: soluble on expression in E. coli; label from the status in PepcDB or PDB records

| Sequence | soluble on expression in E. coli |
| --- | --- |
| MHKEKHCAVVIDCWMEKIGEVNFENKPSKFPAFVEEIRKICGTKDFVFGLEDTRGFGRNLASYLTGRKFEVKHVNPVYTSAIRLSNPIIYKDDSYDAYCVARVLRDMVDTLQDAKHEDIYWAIRQLVKRREIIVKYNVMNKNQLHSQLSYGYPSYKKFFSQIDGKSALCFWENYPSPEHIWCTTPEQIYETIKAVHQAFKIERVHAIIDMIKKDGNTQKGYQEERDTIVRNIVKDIKNNQELLKDIEKQLRKLLPQTGYKLQTMPGIDLITEAKIVSEIGDINRFPNSDKLARFMGLAPVHFSSAGKGKEERCRNGNRELNAIFHFLAIQMVAVSPSGKPRHPVFREYFEQKVKEGKNKPQALICISRTLVRLIYGMMKTKTEYRPYEKKEEEGNN | soluble |
| MGSDKIHHHHHHMTILHSTDFFKAGISTVAIEPRLPQSAFPEHHHDFHEIVIVEQGSGIHVFNGQPYTIGGGSVCFIRDHDRHLYEHTDNLCLTNVLYRAPDAFRFLAGVSQLLPQEQEGNYPSHWRVNQTVLQQVRHIVAQIEAVGSDTDTHAVASREILFMQLLVLLRKSSLAEEATNNDARLNQLLAWLEDHFAQEICWEEVAAQFSLSLRTLHRQLKQQTGLTPQRYLNRVRLMKARHLLRHSDESVTDIAYRCGFGDSNHFSTLFRREFDWSPRDIRQGRDAILQ | not soluble |
| MGSDKIHHHHHHMSNNHKDSTINLYNHTASDWIRGEPSSLSDFTARPSVLELCEPVSGLRVVDIGCGEGYCSRELHRRGAAQVYGIDLSQGMIEAAKLQEVEHPLSISYEVGCATNLKRFDDSEIDLVVAVFLFNYLTISQTQECMAEVARILRPGGRFVFSVPHPSFPYMREAAYPFYFQVEGAGYFSNRDQQFPGRIWKRDGSWLNVQLIHKTLEDYFNALRIAGFNTMPILQELRVTSEHIAVDKSFFSPLLDQPLHLALQILR | not soluble |
| MQRYFVEEKYVNETSIRIVGDDVHHIARVMRMSAGDHIYCCVNGKTAVCSIDEITSEFINTAIVEWVEASSELPVFVTIASGLPKGDKLELIFQKGTELGAAAFLPFQASRSIVKWDAKKADKKVERLRKIVKEAAEQSHRSEIPEVHAPASFKQLLSMSGEYDTCLVAYEEEAKQGEKSNFAKALTTMKPGQKLLIVFGPEGGLAEEEITALREHKFVPCSLGPKNFKNRNGAVIRVKCCFVSF | not soluble |
| MEDLIDGIIFAANYLGSTQLLSDKTPSKNVRMMQAQEAVSRIKMAQKLAKSRKKAPEGESQPMTEVDLFILTQRIKVLNADTQETMMDHPLRTISYIADIGNIVVLMARRRIPRSNSQENVEASHPSQDGKRQYKMICHVFESEDAQLIAQSIGQAFSVAYQEFLRANGINP | soluble |
| VDLNALADLPLTYPEVGATATGRLPAGYNHLDVSTQIGTGRQRFEQAADAVMHWGMQRNAGLRVRASSETAVVSAVVLVGIAFLRAPCRVVYVIDEPDVRGFGYGTLPGHPVSGEERFAVRCDPMTSVVFAEVLSFSRPATWASKAAGPLGAVTQRFIAQRYLRAV | not soluble |
| MKKQKLSGAEGFESYYLSIFGERWQSLKAALLEERKPEAYSENLIQNYYLDYASIQAARAMPVLEEGSCLDMCAAPGGKTLVLLSRIKENAEIQANELSADRRNRLIRVLDEHLSEETRKRIRVSSYDASRMPRYGQELYDRILLDAPCSSERHVLQNEKYLKQWTEARIKNLSQRQWALLSAAFLLLKPKGFLVYSTCALADEENDFLIEKLIKKYKEKVRLEEKLDGLGPISPEKTRYGFRFLPDKAEGAGPIYFSLIQKN | not soluble |
| ATCYCRTGRCATRESLSGVCEISGRLYRLCCR | soluble |
| MGSDKIHHHHHHMEIELKTLGNYKAILGESPVYDREGNRLFWVDIDGKKVIVNNLDTNEEKYYDTPDLVTSLCLIDYKRIIVTLRHGFHTLNLTTGEITPYLELENNGENRFNDGKCDIRDRYWAGTMNLHIENPKPTASLYKLEGQRLTKVLDKLYRSNGLGWDPDNKLFYLIDTPLRKVFQFDFDKDKGDIYNKRIVMDFKYEPGRPDGMTIDEEGYLWIAHSAGGKVSRWNPKNGEKVSEIKLPVLYVSSVTFGSPEMNQIFITTMSKGGEPLAGRLFTAKMNIKGLQSYKFLT | not soluble |
| MSLEALGVAVVGFGWMGRVHTQAYARVRHHYPHLALRPELVTVAEEVPGRAEEAAAQFGFASTTRDWREVAADPRVHAVSITAPNFLHREIAVAMAGAGKHIWVEKPVGLSSDDARAVADAVSGAGVQGAVGFNYRNAPAVETARRLIAAGEIGTVTHARLRFFSDYAAHPEGALTWRYERERGGSGVLGDLASHGADLARFLLGDIASLTADTAVFVPERARPASATAGHARATGGEPGPVENEDYVSCLLRFASGARGVLEACRVSVGEQNNYGFEVHGTTGAVFWDFRRMNELRVSRGTEYQDQPVSTVYVGPGDGEFAAFQPGAANAMGYDDLKVVEAHRFLRSIAEGTPYGATLSDAVHSAAVLEAMSRSAERGTWVSPGEGHHHHHH | soluble |
| MAKSYDYQSAFDIIGPVMMGPSSSHTAGAVKIGNSARAVLGDMPKHIEIRYYESFAKTHQGHGTDVAIVGGAMGYSTFDSRIKSSLDIAKDENITIDIIEDEGESIGQHPNCAYIKANTKDGRYIEVIGISIGGGTIKLKGINVNGLNVELNHGLPMLVIDGNMNKAKINHLINDLSDMDLDLGEELIETNDNEGLVVFPLNKAISESALNIIKDKHSDLNVSYIK | not soluble |
| MRLNKRLPAALSGLLLSAALLAGCSTSGTAETTTTTVSSAAASTTTSTSSASSSSSSSSSSSSSDSSTTAETISNTAEAAQAFLSTLSTEEQDAVLYDYDAEEKSTGWSNFPVTFVQRSGVNLTDLTEEQQAAALNVLKNLLNDDAYQMIEDIMASDQYLNDESNTTEDSLGQYYIAFFGDPSSDSDWSIQFGGHHIGINTTFSDGAITFAPTHLGTQPSEWTNEDGETVAALSNMYETAFAFYDSLAEEQQAQLYQGEELDSMVCAPGSTCDYPTGTGLKGSDLTDEQKELLIDVIANWVGLADEETTETELDAIRETLDDTYINWSGATEYDTSTGDGIYFQISGPKVYIEFANQQGSAGADIDGVITAGWGHIHTIYRDPTNDYANSVTQEAASGMMGGGPGGNGGEMPSGDMPTGEMPSGAPSNLEHHHHHH | not soluble |
| MVKIIENKLIDAEPLKDAVLIEGLPGIGHVGRVAAEHIVEEFNGEKVLELYCDDFPPQIVVKNDGTIEYMKNEFYLVKEPVPMVIVLGNTQALSPKGQYVLSEKIVDIAMKYGATKTYTLGGFGIGKISDELKVYVASTSKELSEQHKELGAEFRTDGGSIIGAAGLMLKFSKLKGIEGICLMGETPGYLVDPKSAGNVLEMLSKAIGFEIDMKKLDERAKEMEKFIEKVQMQEQGMQAPQHQDDLSYIG | not soluble |
| VNDNQLAPVARPRSPLELLDTVPDSLLRRLKQYSGRLATEAVSAMQERLPFFADLEASQRASVALVVQTAVVNFVEWMHDPHSDVGYTAQAFELVPQDLTRRIALRQTVDMVRVTMEFFEEVVPLLARSEEQLTALTVGILKYSRDLAFTAATAYADAAEARGTWDSRMEASVVDAVVRGDTGPELLSRAAALNWDTTAPATVLVGTPAPGPNGSNSDGDSERASQDVRDTAARHGRAALTDVHGTWLVAIVSGQLSPTEKFLKDLLAAFADAPVVIGPTAPMLTAAHRSASEAISGMNAVAGWRGAPRPVLARELLPERALMGDASAIVALHTDVMRPLADAGPTLIETLDAYLDCGGAIEACARKLFVHPNTVRYRLKRITDFTGRDPTQPRDAYVLRVAATVGQLNYPTPH | not soluble |
| MGSDKIHHHHHHVDLMLKSVISYFLPNYCLVCEREIDPNDYLCKDCLTSIRGPIMAPVELLNIDSAHSYWKYESPMKELIRAYKFGDRPGVARLFAKIVFEMIDVFAPSTDVIVPVPTSLQAFIRRGFDTNLRILRHLARTIDIKIDNVLSISGKTVPQSTLKMQDRIDNVRDKFFLRKKPRSTSVILFDDVVTSGATASQCARVLREGGVKEITLLAIASAKK | not soluble |
| MPMVLVVLDHDGNRLKKGSLEALTRARDLAQALGGKVAGVLLAEEKAPVEEARKYVEVLYTATLGPYTAEKWAAGVLKAAEASGAKAVVAPSSRQSRAYLGRVAYALRAGLLEDTLESRVEGGEVHATRYAYLNRVTQRVKAALPVVLTVKPNTTPLAEPLPGEAEAVALSVPEVPTVEVLERLQEEKKGVSLTEADVVVTGGRGMGSPEAFKLVEELAALLGGAVGATRAVVDAGWRPYAEQVGQTGKTVQPSLYIALGVSGAVQHLAGMNKSKYIVAVNKDPEAPIFKHADYGIVGDVHQVLPALIEAVKKLKD | soluble |
| MSLASPDWQDQIIYFLMIDRFNDGDSALNDQGQNEFDPTSDKKFSGGDLVGVSDKLSYIEDLGATSIWITPPVANQWWDAEQNYGGYHGYWARDFQKVDEHFGDMESYQALAREVHARNMFLIQDIVTNHVGNFFTYDDPYSYDPSLPCQGFRLIKNALPAGQELPYPLNMNECKTDGTGSYHWTPTITDHNDPVQEKTWQLSDLDDLNTSDPEVRAYLKESYRKWIREVGVDGFRIDTVKFVEHDFWSDFLHADDGVMTQAVDTGRDNFLTFGEVFETSTPYHTEGEEKMLTYIGESGSPKQLTSVLNFPLQATMTRVFASGQPTDYLRFRLEKMMEMFPNPYIMPNFIDNHDMPRFLSQGSVNDMKQALITMMSVPGIPVIYQGTEQAMSAARDAMFAGGYREDGNYVDSFDQNSEMYLFIQELAKLRTENKVMTRGEIKVIGSDKAGAGVFAFTRTLDNDEVLVVMNTSNSPMLMNQLDVEQAGGTVFKQQIMSNWADAPEQLVADENGHVTLELPAKSAVIYSKTSSNQSVNTPDLNIQLAQDWEGKTITGDIVIAGSANANEKLNLVVDGNLETAQTITVGADGQFSVTLSTRHFAIGEQQHRFAIYSTEKKAGIEDVNFVSNLSWSNTPDDTIDDAGDAQDGVGGPNGNYSLPTDPTFDKDNSQLAINKAEVFTVGSNVRLTFTMDKITDTWLPPNGFDHVGFTIFIDLPEEAATNLSELPKINASMPNGTWSRNAVVFGWQSSIYNTKGANATTWGEAVTPAPTVTVDKANNTISMDFASDALGRPESLDGIRFYVTTWDLDGLSATYRPLEQDKGPWNFSGGASDESKIWDDLPIITLSEGHHHHHH | not soluble |
| MSLGQVEVIDRRQSVFGDDIQLQKRSSSYEIISNGVFLMSTENGRSEREMVTLGAQHMKNAVHSVLIGGLGVGITADEAVHLNDHVQVHVVEIEPSVVEWQYRYLYPFSNQALEHERTAIIISDIQQWLRTNERTYDLICLDTDNGPDWMVHKQNASLYGKIGLELVRERVRVGGAVSFWSASASESFLHELETLFDRVYEHAVSISHTLPPDYVYVACREGHHHHHH | not soluble |
| MTIIAGTVVKGKQLGRKLGFPTANVDAKIHGLRNGVYGVLATVNHQFHLGVMNIGVKPTVGSNLEKTLEIFLFDFHRDIYGEKIECSILFKIREERRFDSLESLTKQIKKDISCVAKRFELIGIMAPNKKESLLSHQELNLPDLCFYKKCNNLYGVNRGVYNVIDNWFFEYGITQVAYRRIYILSFLSFLKEDNPKVSSKYIRFGAGGLADKLNRFISSYVEESEENILGLEHHHHHH | soluble |
| MSLMKQIKHFNQNYQELRQLGKVAIGRRAGKLKAGTIILFAVDSQGKILAARKMQGVTVLAKFHPLPQYVNEDIHYMDHYHPLVQKENKLTQQAMENAREIYLRVELGNYQETQPLTPLNGAKIQWQLWKNKVQTKLKGSVEEGHHHHHH | not soluble |
| EPNTPFGHTPPKGLPQDEAALDIEDAVHGALEGAGFVHYETSAFAKPAMQCRHNLNYWQFGDYLGIGAGAHGKISYPDRIERTVRRRHPNDYLALMQSQPSEAVERKTVAAEDLPFEFMMNALRLTDGVPAAMLQERTGVPSAKIMAQIETARQKGLLETDPAVFRPTEKGRLFLNDLLQCFL | not soluble |
